Here are results for 23 molecules from US20110256180A1 (CHILDREN S HOSPITAL AND RESEARCH CENTER AT OAKLAND, published 2011).

Assay [1] deals with fHbp ID 1 on live bacteria of N. meningitidis group B strain H44/76 (Neisseria meningitidis) (UniProt E6MV22). As to the kind of experiment: cell-based or functional assay.
The target in assay [2] is human complement factor H (human) (UniProt P08603). As to the kind of experiment: ELISA, vs respective wildtype fHbp. Background: An ELISA detects its analyte on a solid surface through an enzyme-linked reagent.
Assay [3] has as its target fHbp ID 77, wild-type (strain 8047, variant group 2, modular group VI) (Neisseria meningitidis). Nature of the assay: ELISA.
The target in assay [4] is fHbp ID 22, wild-type (variant group 2, modular group III) (Neisseria meningitidis). As to the kind of experiment: ELISA.
Assay [5] addresses T1, human complement factor H (human, UniProt P08603 19-1231).
T1 construct: also called human fH; fH
Nature of the assay: ELISA, vs respective wildtype fHbp.

Assay [6] has as its target T1, human complement factor H. As to the kind of experiment: ELISA, fHbp on plate.
In assay [7] the target is T1, human complement factor H. As to the kind of experiment: ELISA, vs respective wildtype fHbp. The source holds these as a separate data set.
Assay [8] addresses T2, mouse factor H (native fH of wild-type mice) (mouse, UniProt P06909 19-1234).
T2 construct: also called mouse fH
As to the kind of experiment: ELISA, fHbp on plate, mouse serum.

Assay [9] deals with T1, human complement factor H. As to the kind of experiment: ELISA.

Substitutions are numbered along the chain they refer to. Numbers in names are those of the source. Like-named read-outs stand apart in the source and are kept apart here. A value given as a limit tells only on which side of the number the result lay.

T1 sequence (P08603 19-1231 limits assumed): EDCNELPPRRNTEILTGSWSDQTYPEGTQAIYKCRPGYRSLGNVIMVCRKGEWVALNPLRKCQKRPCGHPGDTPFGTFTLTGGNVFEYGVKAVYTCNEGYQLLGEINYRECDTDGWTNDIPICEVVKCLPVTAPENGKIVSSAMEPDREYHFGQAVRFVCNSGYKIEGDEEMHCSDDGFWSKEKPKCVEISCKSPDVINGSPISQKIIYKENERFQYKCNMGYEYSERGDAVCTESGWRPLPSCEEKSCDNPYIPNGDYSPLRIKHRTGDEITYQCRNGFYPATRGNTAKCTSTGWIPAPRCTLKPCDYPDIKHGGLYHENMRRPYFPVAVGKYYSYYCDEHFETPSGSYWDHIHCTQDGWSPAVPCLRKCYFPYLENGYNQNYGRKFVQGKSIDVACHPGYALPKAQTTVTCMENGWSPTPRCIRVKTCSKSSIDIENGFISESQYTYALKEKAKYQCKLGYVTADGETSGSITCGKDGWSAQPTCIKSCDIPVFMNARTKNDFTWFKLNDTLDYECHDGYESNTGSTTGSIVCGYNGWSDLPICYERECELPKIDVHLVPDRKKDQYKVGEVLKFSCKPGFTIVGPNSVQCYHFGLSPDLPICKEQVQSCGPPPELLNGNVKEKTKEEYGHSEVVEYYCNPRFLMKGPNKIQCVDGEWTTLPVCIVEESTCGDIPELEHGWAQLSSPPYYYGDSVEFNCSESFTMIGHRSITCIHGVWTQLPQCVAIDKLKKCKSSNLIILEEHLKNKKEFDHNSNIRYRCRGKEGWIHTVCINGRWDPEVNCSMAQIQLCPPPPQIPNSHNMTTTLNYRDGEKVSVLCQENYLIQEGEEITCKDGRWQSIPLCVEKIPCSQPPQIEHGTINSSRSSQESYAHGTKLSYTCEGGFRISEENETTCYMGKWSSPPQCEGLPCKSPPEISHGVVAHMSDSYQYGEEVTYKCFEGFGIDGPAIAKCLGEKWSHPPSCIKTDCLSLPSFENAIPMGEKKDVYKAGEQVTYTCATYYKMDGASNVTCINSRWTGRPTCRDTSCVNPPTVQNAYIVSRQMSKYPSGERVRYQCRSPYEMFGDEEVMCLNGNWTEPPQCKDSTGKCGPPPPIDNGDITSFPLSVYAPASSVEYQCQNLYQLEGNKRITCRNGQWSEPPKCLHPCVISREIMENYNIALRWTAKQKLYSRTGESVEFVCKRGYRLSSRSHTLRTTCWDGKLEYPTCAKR
Chain of human complement factor H (human) (P08603 19-1231 limits assumed): as above
T2 sequence (P06909 19-1234): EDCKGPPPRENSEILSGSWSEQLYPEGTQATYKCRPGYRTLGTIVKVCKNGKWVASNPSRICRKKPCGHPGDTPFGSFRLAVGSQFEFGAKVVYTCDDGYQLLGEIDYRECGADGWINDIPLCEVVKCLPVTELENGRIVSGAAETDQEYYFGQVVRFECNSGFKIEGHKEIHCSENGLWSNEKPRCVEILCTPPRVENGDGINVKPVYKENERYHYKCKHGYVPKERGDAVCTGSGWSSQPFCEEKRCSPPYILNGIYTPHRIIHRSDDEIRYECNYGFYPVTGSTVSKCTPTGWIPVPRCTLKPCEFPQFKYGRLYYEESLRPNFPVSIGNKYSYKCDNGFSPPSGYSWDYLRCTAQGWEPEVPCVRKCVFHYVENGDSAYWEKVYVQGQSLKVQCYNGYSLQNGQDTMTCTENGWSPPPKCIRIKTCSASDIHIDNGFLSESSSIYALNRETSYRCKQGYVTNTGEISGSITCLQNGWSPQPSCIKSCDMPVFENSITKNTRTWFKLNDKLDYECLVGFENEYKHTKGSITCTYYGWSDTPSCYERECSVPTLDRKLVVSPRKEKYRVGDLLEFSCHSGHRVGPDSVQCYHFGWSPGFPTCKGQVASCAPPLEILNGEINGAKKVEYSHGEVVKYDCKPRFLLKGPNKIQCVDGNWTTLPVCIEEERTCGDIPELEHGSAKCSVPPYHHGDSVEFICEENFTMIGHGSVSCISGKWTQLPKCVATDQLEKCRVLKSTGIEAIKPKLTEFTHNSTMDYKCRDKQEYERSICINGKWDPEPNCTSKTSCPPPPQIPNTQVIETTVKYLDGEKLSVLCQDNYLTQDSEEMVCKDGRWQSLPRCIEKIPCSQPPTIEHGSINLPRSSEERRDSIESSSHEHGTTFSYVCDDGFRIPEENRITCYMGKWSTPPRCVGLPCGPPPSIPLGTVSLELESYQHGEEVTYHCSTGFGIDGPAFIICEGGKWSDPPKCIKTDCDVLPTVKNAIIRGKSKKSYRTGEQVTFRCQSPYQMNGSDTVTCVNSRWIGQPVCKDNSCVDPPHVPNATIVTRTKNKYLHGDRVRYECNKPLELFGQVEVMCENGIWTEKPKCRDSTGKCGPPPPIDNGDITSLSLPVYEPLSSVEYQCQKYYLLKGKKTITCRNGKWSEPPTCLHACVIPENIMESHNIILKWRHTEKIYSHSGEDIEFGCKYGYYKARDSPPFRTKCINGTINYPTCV

As to “human IgG1 mouse chimeric anti-fHbp mAb502 (from UniProt P01857 1-330; P01834 1-107) (antibody)”, in [1], the Bactericidal Activity (BC50%), fH-depleted complement, mean is 1.25 µg/mL and the Bactericidal Activity (BC50%), fH-repleted complement, mean was more than 100 µg/mL.

In assay [2], fHbp ID 74 R41S mutant returned a Fold-Decrease in fH binding of more than 50 fold.

In [2], fHbp ID 9 R41S mutant yielded a Fold-Decrease in fH binding of more than 50 fold.

In assay [1], “human IgG1 mouse chimeric anti-fHbp mAb JAR 5 (from UniProt P01857 1-330; P01834 1-107) (antibody)” showed a Bactericidal Activity (BC50%), fH-depleted complement, mean of 1.25 µg/mL and a Bactericidal Activity (BC50%), fH-repleted complement, mean of 23.5 µg/mL.

As for “human IgG1 mouse chimeric anti-fHbp mAb JAR 3 (from UniProt P01857 1-330; P01834 1-107) (antibody)”, the Bactericidal Activity (BC50%), fH-repleted complement, mean in assay [1] came out at 15.2 µg/mL.

As to “anti-fHbp monoclonal antibody JAR 4 (murine)”, the percent less binding than to variant 1 fHbp (ID 1) in assay [3] and in [4] was 30% in each case.

B1: fHbp ID 22 R80A mutant (protein)
chain: CSSGGGGVAADIGAGLADALTAPLDHKDKSLQSLTLDQSVRKNEKLKLAAQGAEKTYGNGDSLNTGKLKNDKVSRFDFIAQIEVDGQLITLESGEFQIYKQDHSAVVALQIEKINNPDKIDSLINQRSFLVSGLGGEHTAFNQLPSGKAEYHGKAFSSDDPNGRLHYSIDFTKKQGYGRIEHLKTPEQNVELASAELKADEKSHAVILGDTRYGGEEKGTYHLALFGDRAQEIAGSATVKIREKVHEIGIAGKQ
On to B1, for which the Fold-Decrease in fH binding in assay [2] was more than 50 fold.

B2: fHbp ID 22 D211A mutant (protein)
chain: B1 chain with A80R, D210A
On to B2, for which the Fold-Decrease in fH binding in [2] is more than 50 fold.

B3: fHbp ID 22 G236I mutant (protein)
chain: B1 chain with A80R, G235I
Take B3: in assay [2], the Fold-Decrease in fH binding is more than 50 fold.

B4: fHbp ID 22, wild-type (variant group 2, modular group III) (other)
chain: B1 chain with A80R
notes: Recombinant; also called ID 22 (III); WT ID 22
On to B4, for which, in assay [5], the “Fold-Decrease in fH binding” value stood at 0 fold.

B5: fHbp ID 22 E248A mutant (protein)
chain: B1 chain with A80R, E247A
With B5, the Fold-Decrease in fH binding in assay [2] is more than 50 fold.

B6: fHbp ID 22 T220A/H222A double mutant (protein)
chain: B1 chain with A80R, T220A, H222A
Consider B6, for which the Fold-Decrease in fH binding in [2] is more than 50 fold.

B7: fHbp ID 22 E218A mutant (protein)
chain: B1 chain with A80R, E217A
In turn, B7 had a Fold-Decrease in fH binding in assay [2] of more than 50 fold.

B8: fHbp ID 77, wild-type (strain 8047, variant group 2, modular group VI) (other)
chain: CSSGGGGVAADIGARLADALTAPLDHKDKSLQSLTLDQSVRKNEKLKLAAQGAEKTYGNGDSLNTGKLKNDKVSRFDFIRQIEVDGQLITLESGEFQIYKQDHSAVVALQIEKINNPDKIDSLINQRSFLVSGLGGEHTAFNQLPDGKAEYHGKAFSSDDAGGKLTYTIDFAAKQGHGKIEHLKTPEQNVELAAAELKADEKSHAVILGDTRYGSEEKGTYHLALFGDRAQEIAGSATVKIGEKVHEIGIAGKQ
notes: Recombinant; also called ID 77 (VI); wildtype fHbp ID 77
Consider B8, for which, in assay [5], the “Fold-Decrease in fH binding” value is 0 fold.

B9: fHbp ID 77 R41S/D121A double mutant (other)
chain: B8 chain with R41S, D121A
As for B9, in [5], the “Fold-Decrease in fH binding” value is more than 10 fold. Also, in [6], the “fold less binding to fH than wildtype fHbp ID 77” value was approximately 10 fold.

B10: fHbp ID 77 R41S/K113A/D121A triple mutant (other)
chain: B8 chain with R41S, K113A, D121A
With B10, in assay [5], the “Fold-Decrease in fH binding” value was more than 50 fold. In assay [6], the binding result is on record as “no binding”.

B11: fHbp ID 77 K119A mutant (other)
chain: B8 chain with K119A
Turning to B11, the “fold increase in fH binding compared to wildtype fHbp ID 77” value in assay [6] is approximately 4 fold. In addition, the “Fold-Decrease in fH binding” value in assay [7] is 0 fold.

B12: fHbp ID 77 R41S/K119A double mutant (other)
chain: B8 chain with R41S, K119A
Take B12: the “Fold-Decrease in fH binding” value in assay [5] was more than 5 fold. The “fold decrease in fH binding” value in [6] is approximately 5 fold.

B13: fHbp ID 77 R41S/K113A double mutant (other)
chain: B8 chain with R41S, K113A
Regarding B13, in assay [5], the “Fold-Decrease in fH binding” value was more than 10 fold. Also, in assay [6], the “fold less binding to fH than wildtype fHbp ID 77” value was approximately 10 fold.

B14: fHbp ID 1, wild-type recombinant factor H binding protein (strain MC58, variant 1, modular group I) (other)
chain: CSSGGGGVAADIGAGLADALTAPLDHKDKGLQSLTLDQSVRKNEKLKLAAQGAEKTYGNGDSLNTGKLKNDKVSRFDFIRQIEVDGQLITLESGEFQVYKQSHSALTAFQTEQIQDSEHSGKMVAKRQFRIGDIAGEHTSFDKLPEGGRATYRGTAFGSDDAGGKLTYTIDFAAKQGNGKIEHLKSPELNVDLAAADIKPDGKRHAVISGSVLYNQAEKGSYSLGIFGGKAQEVAGSAEVKTVNGIRHIGLAAKQ
notes: also called WT fHbp ID 1; Pep1
Consider B14, for which the binding result in assay [8] is given as “no binding (tested: 1:100 dilution of serum)”.

B15: fHbp ID 15, wild-type (natural chimera, modular group IV) (other)
chain: CSSGGGGSGGGGVAADIGAGLADALTAPLDHKDKGLKSLTLEDSISQNGTLTLSAQGAERTFKAGDKDNSLNTGKLKNDKISRFDFIRQIEVDGQLITLESGEFQVYKQSHSALTALQTEQVQDSEHSGKMVAKRQFRIGDIVGEHTSFGKLPKDVMATYRGTAFGSDDAGGKLTYTIDFAAKQGHGKIEHLKSPELNVDLAAADIKPDEKHHAVISGSVLYNQAEKGSYSLGIFGGQAQEVAGSAEVETANGIRHIGLAAKQ
notes: Recombinant; also called Pep 15 WT; peptide 15
As to B15, the “Fold-Decrease in fH binding” value in assay [5] and in assay [7] was 0 fold throughout.

B16: fHbp ID 15 S41P mutant (other)
chain: B15 chain with S46P
notes: also called Pep 15 S41P
In the case of B16, the “Fold-Decrease in fH binding” value in assay [5] was more than 50 fold. In assay [6], the binding result is given as “no binding”.

B17: fHbp ID 28 K199A mutant (other)
chain: CSSGGGGSGGGGVAADIGTGLADALTAPLDHKDKGLKSLTLEDSIPQNGTLTLSAQGAEKTFKAGDKDNSLNTGKLKNDKISRFDFVQKIEVDGQTITLASGEFQIYKQNHSAVVALQIEKINNPDKTDSLINQRSFLVSGLGGEHTAFNQLPGGKAEYHGKAFSSDDPNGRLHYSIDFTKKQGYGRIEHLKTLEQNVELAAAELAADEKSHAVILGDTRYGSEEKGTYHLALFGDRAQEIAGSATVKIGEKVHEIGIAGKQ
On to B17, for which, in [9], the binding result is “binds”.
